# Assay: Shuffled variant libraries: 14CO2 capturing assay in 384-well format
# Conditions: decarboxylation activity (carbon dioxide released) compared with unmutated backbone protein SEQ ID NO 509 (DDEC0810)
row,Molecule,Fold Activity
1,"547 (protein, Dicamba decarboxylase variant) MAQGLVALEEHFAIPETLQDAAGFVPGDYWKELQHRLLDIQDTRLKEMDKHEIGTMILSLAAPAVQAIPDRRKAIELAKRANDFLAEEVAKRPDRFLAFAALPMQDVDAATEELQRCVADLGFVGAMVNGFSQEGDGQTPLYYDLPQYRPFWKEVEKLDVPFYLHPRNPLPQDARIYDGHPWLLGPTWAFAQETAVHALRLMASGLFDEHPRLNIILGHMGEGLPYMMYRIDHRIAWVKAPPRYPAKRRFMDYFLENFHITTSGNFRTQTLIDAILEIGADRILFSTDWPFENIDHAADWFNATSIAEADRVKIGRTNARRLFKLDVR",1.6
2,"548 (protein, Dicamba decarboxylase variant) MAQGKVALEEHFAIPETLQDAAGFVPGDYWKELQHRLMDIQDTRLKEMDRHGIGTMVLSLAAPAVQAIPDRRKAIEIARRANDFLAEEVAKRPDRFLAFAALPMQDPEAATSELQRCVADLGFVGAMVNGFSQEGDGQTPLYYDLPQYRPFWGEVEKLDVPFYLHPRNPLPQDARIYDGHPWLLGPTWAFAQETAVHALRLMASGLFDEHPRLNIILGHMGEGLPYMMYRIDHRIAWVKAPPDYPAKRRFMDYFLENFHITTSGNFRTQTLIDAILEIGADRILFSTDWPFENIDHAADWFNATSIAEADRVKIGRTNARNLFKLDVR",0.8
3,"549 (protein, Dicamba decarboxylase variant) MAQGLVALEEHFAIPETLQDAAGFVPGCYWKELQHRLLDIQDTRLKEMDRHEIGTMVLSLAAPAVQAIPDRRKAIELAKRANDFLAEEVAKRPDRFLAFAALPLQDVDAATEELQRCVNDLGFVGAMVNGFSQEGDGQTPLYYDLPQYRPFWGEVEKLDVPFYLHPRNPLPQDARIYDGHPWLLGPTWAFAQETAVHALRLMASGLFDEHPRLNIILGHMGEGLPYMMYRIDHRIAWVKAPPDYPAKRRFMDYFLENFHITTSGNFRTQTLIDAILEIGADRILFSTDWPFENIDHAADWFAATSIAEADRVKIGRTNARRLFKLDGS",1.1
4,"550 (protein, Dicamba decarboxylase variant) MAQGKVALEEHFAIPETLQDAAGFVPGCYWKELQHRLLDIQDTRLKEMDKHEIGTMVLSLAAPAVQAIPDRRKAIELARRANDFLAEEVAKRPDRFLAFAALPLQDVDAATEELQRCVNDLGFVGAMVNGFSQEGDGQTPLYYDLPQYRPFWGEVEKLDVPFYLHPRNPLPQDSRIYDGHPWLLGPTWAFAQETAVHALRLMASGLFDEHPRLNIILGHMGEGLPYMMYRIDHRIAWVKAPPRYPAKRRFMDYFLENFHITTSGNFRTQTLIDAILEIGADRILFSTDWPFENIDHAADWFAATSIAEADRVKIGRTNARRLFKLDVR",1.1
5,"551 (protein, Dicamba decarboxylase variant) MAQGKVALEEHFAIPETLQDAAGFVPGDYWKELQHRLLDMQDERLKEMDKHEIGTMVLSLAAPAVQAIPDRRKAIELARRANDFLAEEVAKRPDRFLAFAALPLQDVDAATEELQRCVNDLGFVGAMVNGFSQEGDGQTPLYYDLPQYRPFWGEVEKLDVPFYLHPRNPLPQDSRIYDGHPWLLGPTWAFAQETAVHALRLMASGLFDEHPRLNIILGHMGEGLPYMMYRIDHRIAWVKAPPDYPAKRRFMDYFLENFHITTSGNFRTQTLIDAILEIGADRILFSTDWPFENIDHAADWFNATSIAEADRVKIGRTNARRLFKLDGR",1.0
6,"552 (protein, Dicamba decarboxylase variant) MAQGLVALEEHFAIPETLQDAAGFVPGDYWKELQHRLLDIQDTRLKEMDKHGIGTMILSLAAPAVQAIPDRRKAIELARRANDFLAEEVAKRPDRFLAFAALPLQDVDAATEELQRCVADLGFVGAMVNGFSQEGDGQTPLYYDLPQYRPFWKEVEKLDVPFYLHPRNPLPQDSRIYDGHPWLLGPTWAFAQETAVHALRLMASGLFDEHPRLNIILGHMGEGLPYMMYRIDHRIAWVKAPPDYPAKRRFMDYFLENFHITTSGNFRTQTLIDAILEIGADRILFSTDWPFENIDHAADWFNATSIAEADRVKIGRTNARNLFKLDGR",1.7
7,"553 (protein, Dicamba decarboxylase variant) MAQGLVALEEHFAIPETLQDAAGFVPGCYWKELQHRLLDIQDTRLKEMDKHEIGTMVLSLAAPAVQAIPDRRKAIEIARRANDFLAEEVAKRPDRFLAFAALPLQDVDAATEELQRCVADLGFVGAMVNGFSQEGDGQTPLYYDLPQYRPFWGEVEKLDVPFYLHPRNPLPQDSRIYDGHPWLLGPTWAFAQETAVHALRLMASGLFDEHPRLNIILGHMGEGLPYMMYRIDHRIAWVKAPPDYPAKRRFMDYFLENFWITTSGNFRTQTLIDAILEIGADRILFSTDWPFENIDHAADWFNATSIAEADRVKIGRTNARRLFKLDVR",0.9
8,"554 (protein, Dicamba decarboxylase variant) MAQGLVALEEHFAIPETLQDAAGFVPGDYWKELQHRLMDIQDTRLKEMDKHGIGTMVLSLAAPAVQGIVDRRKAIEIAKRANDFLAEEVAKRPDRFLAFAALPLQDVDAATEELQRCVADLGFVGAMVNGFSQEGDGQTPLYYDLPQYRPFWGEVEKLDVPFYLHPRNPLPQDARIYDGHPWLLGPTWAFAQETAVHALRLMASGLFDEHPRLNIILGHLGEGLPYMMYRIDHRIAWVKAPPDYPAKRRFMDYFLENFWITTSGNFRTQTLIDAILEIGADRILFSTDWPFENIDHAADWFAATSIAEADRVKIGRTNARRLFKLDVS",0.9
9,"555 (protein, Dicamba decarboxylase variant) MAQGKVALEEHFAIPETLQDAAGFVPGCYWKELQHRLMDIQDTRLKEMDKHEIGTMVLSLAAPAVQAIPDRRKAIEIARRANDFLAEEVAKRPDRFLAFAALPLQDVDAATEELQRCVNDLGFVGAMVNGFSQEGDGQTPLYYDLPQYRPFWGEVEKLDVPFYLHPRNPLPQDARIYDGHPWLLGPTWAFAQETAVHALRLMASGLFDEHPRLNIILGHMGEGLPYMMYRIDHRIAWVKAPPDYPAKRRFMDYFLENFHITTSGNFRTQTLIDAILEIGADRILFSTDWPFENIGHAADWFNATSIAEADRVKIGRTNARRLFKLDVS",0.8
10,"556 (protein, Dicamba decarboxylase variant) MAQGLVALEEHFAIPETLNDAAGFVPGCYWKELQHRLLDIQDTRLKEMDKHGIGTMILSLAAPAVQAIPDRRKAIELARRANDFLAEEVAKRPDRFLAFAALPMQDPDAATEELQRCVADLGFVGAMVNGFSQEGDGQTPLYYDLPQYRPFWKEVEKLDVPFYLHPRNPLPQDARIYDGHPWLLGPTWAFAQETAVHALRLMASGLFDEHPRLNIILGHMGEGLPYMMYRIDHRIAWVKAPPDYPAKRRFMDYFLENFHITTSGNFRTQTLIDAILEIGADRILFSTDWPFENIDHAADWFAATSIAEADRVKIGRTNARRLFKLDVR",1.3
